Data: article PMC7374964 (BMC Biology, 2020)

Key:
Conditions in all cases: one partner purified
[1] = biological target: T1, HIV-1 JRFL Env on pseudovirus particles treated with the CD4 mimetic peptide M48U1 (HIV-1 JRFL, UniProt Q75760, strain); experiment: fluorescence correlation spectroscopy (FCS)
T1 construct: copies: 3 + 3 +

[2] = biological target: T2, HIV-1 BaL Env on free pseudovirus particles (HIV-1 BaL (Env clone not named), UniProt Q2MKA8, strain); experiment: fluorescence correlation spectroscopy (FCS)
T2 construct: copies: 3 + 3

[3] = biological target: T3, HIV-1 BaL Env on pseudovirus particles treated with the CD4 mimetic peptide M48U1 (HIV-1 BaL (Env clone not named), UniProt Q2MKA8, strain); experiment: fluorescence correlation spectroscopy (FCS)
T3 construct: source: HIV-1 BaL pseudoviruses [72] treated for 90 min at 37 °C with 200 ug/ml of M48U1; copies: 3 + 3 +

[4] = biological target: T4, HIV-1 JRFL Env on free pseudovirus particles (HIV-1 JRFL, UniProt Q75760, strain); experiment: fluorescence correlation spectroscopy (FCS)
T4 construct: copies: 3 + 3

[5] = biological target: T5, HIV-1 ADA Env on CEM-NKR cells infected with the Nef- and Vpu-defective virus (NL4.3 GFP ADA/Nef-Vpu-), with … (HIV-1 ADA (Env clone not named); Homo …, UniProt Q6TAN8;P01730, strain); experiment: flow cytometry on cells
T5 construct: also called ADA/N-U- infected cells; pNL43/ADA/N-U- infected CEM-NKR target cells; copies: 3 + 3 +

Measured: binding result

B1: mAb X5 (antibody, V domains shown)
VH: VQLLEQSGAEVKKPGSSVQVSCKASGGTFSMYGFNWVRQAPGHGLEWMGGIIPIFGTSNYAQKFRGRVTFTADQATSTAYMELTNLRSDDTAVYYCARDFGPDWEDGDSYDGSGRGFFDFWGQGTLVTVSS
VL: ELVLTQSPGTLSLSAGERATLSCRASQSVSSGSLAWYQQKPGQAPRLLIYGASTRATGIPDRFSGSGSGTDFTLTIGRLEPEDLAVYYCQQYGTSPYTFGQGTKLEIK
notes: source: generated in house [15]
binds: all assays above
